The results in this text go back to patent publication US20120071422A1 (MEDICAL DIAGNOSTIC LABORATORIES, published 2012).

B1: recombinant human IL-23 cytokine (p19 + p40) (ligand)
chain 1: RAVPGGSSPAWTQCQQLSQKLCTLAWSAHPLVGHMDLREEGDEETTNDVPHIQCGDGCDPQGLRDNSQFCLQRIHQGLIFYEKLLGSDIFTGEPSLLPDSPVGQLHASLLGLSQLLQPEGHHWETQQIPSLSPSQPWQRLLLRFKILRSLQAFVAVAARVFAHGAATLSP
chain 2: IWELKKDVYVVELDWYPDAPGEMVVLTCDTPEEDGITWTLDQSSEVLGSGKTLTIQVKEFGDAGQYTCHKGGEVLSHSLLLLHKKEDGIWSTDILKDQKEPKNKTFLRCEAKNYSGRFTCWWLTTISTDLTFSVKSSRGSSDPQGVTCGAATLSAERVRGDNKEYEYSVECQEDSACPAAEESLPIEVMVDAVHKLKYENYTSSFFIRDIIKPDPPKNLQLKPLKNSRQVEVSWEYPDTWSTPHSYFSLTFCVQVQGKSKREKKDRVFTDKTSATVICRKNASISVRAQDRYYSSSWSEWASVPCS
notes: Disulfide-linked heterodimer

For experiment [1], the target named is T1, recombinant human His-tagged soluble IL-12Rβ1 (human, UniProt P42701 24-545, limits assumed).
T1 construct: Bought (R&D Systems); also called sIL-12Rβ1; shIL-12Rβ1; not shown: His tag
The experiment in a line: anti-Flag immunoprecipitation of Δ9 with IL-23 (200 ng) and sIL-12Rβ1 (1 µg); IL-23 bound to Δ9. The procedure: Human IL12Rβ1 also partners with human IL12Rβ2 to form the cell-surface IL-12 receptor. We wanted to know whether Δ9 could link to human IL-12Rβ1 via IL-23, or indeed bind it directly.
(§1) Culture medium from Δ9 transfection experiments was concentrated using Amicon ultra centrifugal filter 30K (Millipore), then Δ9 protein was affinity purified using anti-FLAG M2 affinity gel (Sigma). The immuno-complex was precipitated, washed and resuspended in PBS. 200 ng of either IL-12 or IL-23 was added to the suspension and incubated at 4° C. for 2 hours. Reprecipitated FLAG-tagged Δ9 immuno-complex was again precipitated and eluted with excess FLAG peptide. The eluted product was analysed by immunoblot using anti-human p40 or anti-human IL-23R to detect the common p40 subunit of IL-12/IL-23 or Δ9, respectively. […] After extensive washing, the eluted product was analysed using anti-HIS (Invitrogen, Carlsbad Calif.), anti-human p40 or anti-human IL-23R(R&D Systems) to detect soluble IL-12Rβ1, the p40 subunit of IL-23 or Δ9, respectively. To examine the N-glycosylation modification on soluble human IL-23Rα, purified Δ9 was treated with N-Glycosidase F (PNGase F) at 37° C. for 1 hour followed by immunoblotting using anti-human IL-23R. […] Immuno-precipitation was performed and analysed by immunoblot, probing with anti-hIL-12/23p40.

The target in experiment [2] is B1. Description: immunoprecipitation and competitive ELISA. The method, then: We developed a competitive ELISA to further examine the ability of the deletion protein mutants (i.e., Δ9, Δ8,9 and 1-250 mutant) to compete (i.e., interfere) the binding of IL-23 cytokine to the full-length extracellular domain of IL-23Rα (See, “Materials & Methods”). Recombinant IL-23Rα-Fc fusion protein from R&D (2 μg/ml) was coated on the ELISA plate. IL-23 cytokine (50 ng) was added in the absence or presence of the deletion protein mutants as competitors.
Recombinant human IL-23R-Fc (2 μg/ml) (from R&D) was coated onto plates as a capture reagent. Biotinylated anti-p40 antibody (1:250) (which specifically recognizes the p40 subunit of IL-23) was used as a detection antibody. Streptavidin—horseradish peroxidase (HRP) (1:500) was added to detect the biotinlyated anti-p40 antibody. The peroxidase activity (representing the level of IL-23 captured onto plates) was measured by addition of a tetramethylbenzidine (TMB) substrate (100 μl/well). The color intensity was directly proportion to the amount of the bound IL-23 protein. The color was measured at optical density (OD) 450 nm using a microtiter plate reader.
A general note: In an ELISA, binding on a coated surface is turned into a signal by an enzyme label.

The target of experiment [3] is B1. The experiment in a line: anti-Flag immunoprecipitation, anti-p40 immunoblot. The procedure:
200 ng of human IL-23 cytokine was added to the immunoprecipitation reaction. The presence of IL-23 in the precipitate was examined by immunoblot using anti-hIL-12/23 p40 antibody.
In addition, we also prepared two (2) more IL-23Rα deletion mutants; namely, 1-250 mutant and 1-200 mutant. These deletion mutants were generated by PCR (See, FIG. 18). Together, all of the four (4) IL-23Rα protein variants (FIG. 18) were tagged with Flag sequence at the C-terminus. […] The culture media were collected 48 hours post-transfection. These four (4) deletion proteins were immunoprecipitated using anti-Flag affinity gel. 200 ng of IL-23 cytokine was added to the immunoprecipitation assay. […] We speculate that the 1-200 mutant may be improperly folded or missing a critical domain that is essential for binding to IL-23 cytokine. […]
Culture medium from Δ9 transfection experiments was concentrated using Amicon ultra centrifugal filter 30K (Millipore), then Δ9 protein was affinity purified using anti-FLAG M2 affinity gel (Sigma). […] The eluted product was analysed by immunoblot using anti-human p40 or anti-human IL-23R to detect the common p40 subunit of IL-12/IL-23 or Δ9, respectively. […] After extensive washing, the eluted product was analysed using anti-HIS (Invitrogen, Carlsbad Calif.), anti-human p40 or anti-human IL-23R(R&D Systems) to detect soluble IL-12Rβ1, the p40 subunit of IL-23 or Δ9, respectively.
A general note: A western blot detects proteins with antibodies after separation by electrophoresis.

In experiment [4] the target is T2, recombinant IL-12 (p35 + p40) (UniProt P29459 23-219; P29460 23-328).
T2 sequence (looked up) 1: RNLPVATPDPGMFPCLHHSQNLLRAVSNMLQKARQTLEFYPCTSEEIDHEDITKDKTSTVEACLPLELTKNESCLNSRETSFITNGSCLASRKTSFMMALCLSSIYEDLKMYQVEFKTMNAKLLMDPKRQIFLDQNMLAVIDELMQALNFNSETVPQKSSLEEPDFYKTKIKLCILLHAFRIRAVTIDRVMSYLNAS
T2 sequence (looked up) 2: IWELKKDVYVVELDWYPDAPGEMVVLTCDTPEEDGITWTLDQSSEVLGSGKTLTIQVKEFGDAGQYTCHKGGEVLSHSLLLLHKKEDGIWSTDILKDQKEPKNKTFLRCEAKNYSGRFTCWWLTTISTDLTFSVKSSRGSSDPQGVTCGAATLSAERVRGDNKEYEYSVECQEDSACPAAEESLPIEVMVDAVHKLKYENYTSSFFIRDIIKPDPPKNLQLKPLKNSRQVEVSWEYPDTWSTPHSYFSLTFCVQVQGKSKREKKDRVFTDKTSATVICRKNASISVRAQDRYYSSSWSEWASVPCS
The experiment in a line: anti-Flag immunoprecipitation, anti-hIL-12/23 p40 immunoblot. The procedure: FIG. 17 depicts the binding specificity of the recombinant Δ9 protein. Immunoprecipitation experiments were performed using anti-Flag M2 affinity gel. Immunoblot experiment was performed to detect IL-12 and IL-23 in the precipitates using the anti-hIL-12/23 p40 (i.e., anti-human IL-12/23 p40). The recombinant Δ9 protein in the precipitates was detected by anti-human IL-23R. Only IL-23 but not IL-12 was detected in the reaction containing the recombinant Δ9 protein.
as §1, with “Reprecipitated FLAG-tagged Δ9 immuno-complex was again precipitated and eluted with excess FLAG peptide.” left out, “respectively.” for “respectively. To examine the N-glycosylation modification on soluble human IL-23Rα, purified Δ9 was treated with N-Glycosidase F (PNGase F) at 37° C. for 1 hour followed by immunoblotting using anti-human IL-23R.”

In experiment [5] the target is T1, recombinant human His-tagged soluble …. The experiment in a line: anti-Flag immunoprecipitation without IL-23, anti-His immunoblot.
Text: On the cell surface, human IL-23Rα combines with human IL-12Rβ1 to form the heterodimeric IL-23 receptor. Human IL12Rβ1 also partners with human IL12Rβ2 to form the cell-surface IL-12 receptor. We wanted to know whether Δ9 could link to human IL-12Rβ1 via IL-23, or indeed bind it directly.
as §1, with “respectively.” for “respectively. To examine the N-glycosylation modification on soluble human IL-23Rα, purified Δ9 was treated with N-Glycosidase F (PNGase F) at 37° C. for 1 hour followed by immunoblotting using anti-human IL-23R.”

With B1, the binding result in experiment [1] is “binds”.

B2: recombinant Δ8,9 protein (soluble truncated human IL-23Rα, exon 8 and 9 deletion splice variant), C-terminal Flag tag (receptor)
chain: GITNINCSGHIWVEPATIFKMGMNISIYCQAAIKNCQPRKLHFYKNGIKERFQITRINKTTARLWYKNFLEPHASMYCTAECPKHFQETLICGKDISSGYPPDIPDEVTCVIYEYSGNMTCTWNAGKLTYIDTKYVVHVKSLETEEEQQYLTSSYINISTDSLQGGKKYLVWVQAANALGMEESKQLQIHLDDIVIPSAAVISRAETINATVPKTIIYWDSQTTIEKVSCEMRYKATTNQTWNVKEFDTNFTYVQQSEFYLEPNIKYVFQVRCQETGKRYWQPWSSLFFHKTPETGLKEGSYC
notes: not shown: C-terminal Flag tag
As to B2, in experiment [2], the binding result is given as “binds”.

B3: recombinant Δ9 protein (soluble truncated human IL-23Rα, exon 9 deletion splice variant), C-terminal Flag tag (receptor)
chain: GITNINCSGHIWVEPATIFKMGMNISIYCQAAIKNCQPRKLHFYKNGIKERFQITRINKTTARLWYKNFLEPHASMYCTAECPKHFQETLICGKDISSGYPPDIPDEVTCVIYEYSGNMTCTWNAGKLTYIDTKYVVHVKSLETEEEQQYLTSSYINISTDSLQGGKKYLVWVQAANALGMEESKQLQIHLDDIVIPSAAVISRAETINATVPKTIIYWDSQTTIEKVSCEMRYKATTNQTWNVKEFDTNFTYVQQSEFYLEPNIKYVFQVRCQETGKRYWQPWSSLFFHKTPETVPQVTSKAFQHDTWNSGLTVASISTGHLTSGLKEGSYC
modifications: N-glycosylated (sites not given)
notes: Said to be a monomer; also called Δ9 variant; Δ9 IL-23Rα; not shown: C-terminal Flag tag
In the case of B3, the values for the binding result in experiment [3], in experiment [4] and in experiment [5] were “binds”, “no binding (tested: 200 ng)” and “no binding (tested: 1 µg)”, respectively.
